± gives the half width of the 95% confidence interval.
What was measured:
[1] = folding stability dG unfold (combined trypsin and chymotrypsin); higher = more stable
Procedure, shortened: (§1)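 Unfolding free energy was derived, per protease or combined, against a sequence-predicted unfolded-state K50 and a shared folded-state K50, starting from K50 inferred by Bayesian fitting of sequencing counts. Digestion with trypsin and chymotrypsin was carried out on designed mini-proteins under 80 residues without cysteine in a PA-tagged cDNA display construct. Only designs with AlphaFold2 dimer inter-PAE above 15 were kept.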

[2] = folding stability dG unfold from chymotrypsin proteolysis; higher = more stable
Procedure, shortened: as §1

[3] = folding stability dG unfold from trypsin proteolysis; higher = more stable
Procedure, shortened: as §1

Sequence	folding stability dG unfold [1] [kcal/mol]	folding stability dG unfold [2] [kcal/mol]	folding stability dG unfold [3] [kcal/mol]
SAGGSAGGSMVEGELPDAKVTVFFHPDGGALALVEFETETVLARIDVLPDDTLKITVIPAKDASAGGSAGGS [r12_669_TrMRF]	2.16 ± 0.072	2.252 ± 0.01	2.05 ± 0.05
SAGGSAGGSMVIRVTTKDGEEVELEIEGMSLEEIKALLPEGVKEVKIEKVEVEPVEVEEEEEESAGGSAGGS [r12_767_TrROS_Hall]	1.72 ± 0.21	1.99 ± 0.27	1.31 ± 0.1
SAGGSAGGSMVLRIKTEDGEEIEIELPEELKELSAEEIAELLGLDEVKVVEVEVVEPEEEEEESAGGSAGGS [r12_411_TrROS_Hall]	1.66 ± 0.19	2.01 ± 0.05	0.256 ± 0.043
SAGGSAGGSMVRVTRLPDGTYRIEIELPGESLEREARGPEEVEALAEEIEKETGVPVEIETLESAGGSAGGS [r12_783_JUSTAS]	0.945 ± 0.14	0.908 ± 0.096	1.1 ± 0.068
SAGGSAGGSMVYTPPEVLTPVREVTITVTTSSYSPSGGTPVTSTSTVPVLVYKDPSGRTAIVPPSAGGSAGG [r6_278_JUSTAS]	0.159 ± 0.11	0.195 ± 0.19	-0.0213 ± 0.072
SAGGSAGGSMYLIRVTTEDNIELTFLVSEDDIEAFEAFAKALAELFPVPVKVEIEPVEEGEEVSAGGSAGGS [r12_385_TrMRF]	3.54 ± 0.086	3.74 ± 0.043	3.2 ± 0.16
SAGGSAGGSMYYVVVTRPGGRPEVIVVPTETLEEVEEVAARIAEALRELGIPEEELEIRVLPVSAGGSAGGS [r12_295_TrMRF]	2.03 ± 0.091	1.679 ± 0.016	2.4 ± 0.046
SAGGSAGGSNDPPEIKIDYEYNPNNGMYTANITIPNGRKLKITFPGDDAEDAEEQAKNLIEKLSAGGSAGGS [r12_339_TrROS]	1.28 ± 0.38	1.57 ± 0.091	0.539 ± 0.089
SAGGSAGGSNFRIIEFDIKLKIPVMKMEPDPDGKPKMEMQPVKIPIKVTIFVFGNGIFIMITFSAGGSAGGS [r20_58_TrROS]	5.11 ± 0.29	5.29 ± 0.16	3.42 ± 0.24
SAGGSAGGSNGKKIEIDIFWPRPMAETIVKELWKGSNIKPIKIKVIPMPEDDPKYKEFMDKLKSAGGSAGGS [r12_649_TrROS]	0.247 ± 0.12	0.188 ± 0.12	0.109 ± 0.079
SAGGSAGGSNIKIPSLQIYPNPNGYYISIKIEHEHPDPDGKKHEVEMSFMIWVPPGESLEDLFSAGGSAGGS [r12_889_TrROS]	2.29 ± 0.12	2.43 ± 0.049	2.1 ± 0.078
SAGGSAGGSNMPPGMEVEMEPIIEREIKNPNGRKLKIKIYVMKIRPPGGPPMFFIALDIQILDSAGGSAGGS [r12_544_TrROS]	4.52 ± 0.22	5.03 ± 0.28	3.48 ± 0.16
SAGGSAGGSNRLVFRFGGYYYVVEIKPPNGKEETIMMPPDDIDDLPKNWKVEVEPIKPGQPIPSAGGSAGGS [r12_419_TrROS]	1.18 ± 0.2	1.46 ± 0.23	1.09 ± 0.12
SAGGSAGGSNYINVKIEIWDPPNGKEREITINIPVPPGDPDYLKEIVNELASNFPGYYVKVEISAGGSAGGS [r12_795_TrROS]	1.64 ± 0.23	1.61 ± 0.058	1.61 ± 0.11
SAGGSAGGSNYVVRIKIRYPDPDGKPIYEHTIDIPVPDEEITADELRKQLKPPGYEITDIEVLSAGGSAGGS [r12_611_TrROS]	0.57 ± 0.12	0.314 ± 0.16	0.509 ± 0.028
SAGGSAGGSPDNWITFIFISISYKWKITKWDPENGGWKIEIKDVSIEIEIIRLPADDADKLFKSAGGSAGGS [r12_723_TrROS]	3.85 ± 0.13	4.34 ± 0.062	2.63 ± 0.079
SAGGSAGGSPDVVVTVEKNEDGEETVTVLMSREDVERLAAALPDVKVEELPDGLVLLTVRVKPSAGGSAGGS [r20_231_TrROS_Hall]	0.728 ± 0.089	0.827 ± 0.07	0.51 ± 0.038
SAGGSAGGSPEAPADRKLVALLRSPDSDTVYLVEITPDGIVAYNANNEKTPVSPEYLVAVFDASAGGSAGGS [r20_35_TrMRF]	1.02 ± 0.036	1.09 ± 0.054	0.883 ± 0.012
